Several values for one entry are separate records, joined by “and”; a condition that tells them apart may be missing. Equal values may be shown once.

This is an account of results in patent US20100119511A1 (Biogen, published 2010).

Experiment [1] concerns the target T1, LTβR-Ig (species not stated).
T1 construct: also called LTβR-human Fc fusion
The experiment is described as follows: biolayer interferometry (Octet), receptor Fc fusion on anti-human Fc sensor, culture supernatant. The method, then: (§1) Anti-human Fc-specific biosensors (Fortebio SKU 18-0001) were hydrated in OB (1×PBS supplemented with 1 mg/ml BSA, 0.05% NaN₃, and 0.02% TWEEN 20) for at least five minutes prior to assays. For each assay, the respective receptor Fc fusion was diluted to 10 μg/ml in OB and allowed to bind to the biosensors for five minutes. The sensors were then incubated in the indicated culture supernatant for an additional five minutes, and subsequently transferred to fresh wells […].
Background: BLI is a label-free optical method that tracks binding on a fibre tip over time.

Experiment [2] concerns the target T2, HER2-Fc (species not stated).
T2 construct: probably human
Described as above. The method, then:
as §1

Experiment [3] deals with T3, HVEM-Ig (species not stated).
T3 construct: also called HVEM-Fc
T3 sequence (Q92956 39-202): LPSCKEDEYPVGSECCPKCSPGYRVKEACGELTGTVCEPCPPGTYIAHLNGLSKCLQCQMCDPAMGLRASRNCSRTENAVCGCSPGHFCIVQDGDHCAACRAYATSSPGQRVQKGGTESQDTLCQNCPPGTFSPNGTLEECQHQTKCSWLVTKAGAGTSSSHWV
The description is as above. As for the experimental part:
as §1

Experiment [4] deals with T4, human HER2-Fc (human, UniProt P04626 23-652).
T4 construct: extracellular domain; Homodimeric fusion protein from R&D Systems; also called human ErbB2-Fc; rhErbB2-Fc; not shown: Fc fragment of human IgG1
Put plainly: ELISA on coated huHER2-Fc, detection anti-human kappa-HRP; value is C (midpoint) of the printed 4-P fit; x axis Fab equivalent concentration. On the technique in general: In an ELISA, binding on a coated surface is turned into a signal by an enzyme label.

Experiment [5] concerns the target T5, human HER2/ErbB2, full length, on cells (human, UniProt P04626 23-1255).
T5 construct: whole, on cells; also called hHER2/ErbB2; wild type HER2/ErbB
Put plainly: FACS (Table 2; cells not given, Examples 14-16 use SKBR3 or CHO/hHER2).

Experiment [6] addresses T3, HVEM-Ig (species not stated). Put plainly: FACS (Table 2; format not given, Example 16 detects HVEM-Fc on cell-bound fusion).
The target in experiment [7] is T2, HER2-Fc (species not stated). Put plainly: ELISA (Table 2; species of Her2 not given). The method, then: (§2) Human and murine ErbB2-Fc were obtained from R&D Systems. Wells of 96-well plates were coated with 2 ug/ml or 0.2 ug/ml of human or murine HER2-Fc by incubation overnight at 4-8° C. with either of these six proteins (80 ul/well of a 0.2 or 2 ug/ml solution in PBS). Wells were emptied, filled completely with a solution of PBS with 1% BSA (blocking buffer) and incubated at room temperature for 1 hour. Wells were emptied, washed twice PBS containing 0.05% Tween 20 (PBST) and filled with the samples (80 ul/well of 3× dilution series of the standard and supernatants in blocking buffer) prepared in another 96-well plate. After a 2-hour incubation at room temperature, the wells were emptied, washed three times with PBST and filled with a solution of HRP-conjugated goat pAbs anti-human kappa chain (80 ul/well of a 2000-fold dilution in blocking buffer). After 1-hour incubation, the wells were emptied and filled with a solution of HRP substrate prepared freshly. The color was left to develop for 3 minutes and was stopped by addition of an equal volume of 1N H₂SO₄. Absorbance was measured at 450 nm using a Plate Reader (SpectraMax, Molecular Devices). The data was processed and graphs were created using SoftMax Pro software.

The target of experiment [8] is LTβR on human tumor cells (SKBR-3, HT29) (human, UniProt P36941 31-435). The experiment is described as follows: cell-based or functional assay.
Chain of LTβR on human tumor cells (SKBR-3, HT29) (P36941 31-435): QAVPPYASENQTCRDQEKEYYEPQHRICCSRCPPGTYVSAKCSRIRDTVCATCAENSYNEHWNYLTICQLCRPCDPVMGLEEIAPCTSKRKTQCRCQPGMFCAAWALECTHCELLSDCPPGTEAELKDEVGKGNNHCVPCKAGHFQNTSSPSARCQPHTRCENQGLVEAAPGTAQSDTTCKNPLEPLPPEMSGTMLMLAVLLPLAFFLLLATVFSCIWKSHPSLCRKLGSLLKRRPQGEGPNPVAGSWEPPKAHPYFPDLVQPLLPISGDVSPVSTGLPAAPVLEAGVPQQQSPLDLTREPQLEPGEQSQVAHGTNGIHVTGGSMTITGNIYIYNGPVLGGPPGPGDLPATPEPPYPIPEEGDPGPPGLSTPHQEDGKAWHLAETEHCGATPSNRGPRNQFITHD
For experiment [9], the target named is T3, HVEM-Ig (species not stated). The experiment is described as follows: ELISA (Table 2; species of HVEM not given). The method, then: as §2
Human and murine HVEM-Ig were expressed and purified in house.

Experiment [10] concerns the target T1, LTβR-Ig (species not stated). Put plainly: ELISA (Table 2; species of LTbR not given). The method, then: as §2
Human and murine LTBR-Ig were expressed and purified in house.

Experiment [11] shares this target. Put plainly: FACS (Table 2; format not given, Example 16 detects LTbR-Ig on cell-bound fusion).
The target of experiment [12] is T6, murine HER2-Fc (mouse; human, UniProt P70424 23-653).
T6 construct: extracellular domain; Homodimeric fusion protein from R&D Systems; also called murine ErbB2-Fc; not shown: Fc fragment of human IgG1
T6 sequence (P70424 23-653): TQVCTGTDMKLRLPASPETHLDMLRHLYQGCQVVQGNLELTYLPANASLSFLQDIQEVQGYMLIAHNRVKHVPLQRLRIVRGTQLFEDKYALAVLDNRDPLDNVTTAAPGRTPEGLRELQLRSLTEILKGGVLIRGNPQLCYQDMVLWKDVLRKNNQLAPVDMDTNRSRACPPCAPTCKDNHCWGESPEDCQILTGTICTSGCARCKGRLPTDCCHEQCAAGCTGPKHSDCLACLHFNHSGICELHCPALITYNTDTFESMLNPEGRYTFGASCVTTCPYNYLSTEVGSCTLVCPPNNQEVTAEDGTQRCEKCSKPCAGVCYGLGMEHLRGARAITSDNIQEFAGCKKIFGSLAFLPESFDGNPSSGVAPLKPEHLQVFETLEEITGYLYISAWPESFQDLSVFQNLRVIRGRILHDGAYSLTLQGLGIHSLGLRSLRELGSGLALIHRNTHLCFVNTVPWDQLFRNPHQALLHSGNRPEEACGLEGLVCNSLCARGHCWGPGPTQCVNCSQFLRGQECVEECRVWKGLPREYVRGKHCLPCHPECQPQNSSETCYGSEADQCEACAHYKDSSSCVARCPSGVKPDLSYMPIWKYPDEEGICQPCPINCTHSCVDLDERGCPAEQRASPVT
The experiment is described as follows: ELISA on coated muHER2-Fc, detection anti-human kappa-HRP; value is C (midpoint) of the printed 4-P fit; x axis Fab equivalent concentration.

Experiment [13] concerns the target Soluble human LTBR (shuLTBR) (human, UniProt P36941 31-227, limits assumed). Put plainly: SEC / light scattering. As for the experimental part: Soluble human LTBR (shuLTBR) was prepared by limited proteolytic digestion of human LTBR-Ig and purified by chromatography on protein A Sepharose and Fractogel TMAE. […] Controls with each protein were also included. The samples were analyzed by SEC using a […] column (Phenomenex) in PBS with a Waters Alliance HPLC instrument.

T1 sequence (P36941 31-227): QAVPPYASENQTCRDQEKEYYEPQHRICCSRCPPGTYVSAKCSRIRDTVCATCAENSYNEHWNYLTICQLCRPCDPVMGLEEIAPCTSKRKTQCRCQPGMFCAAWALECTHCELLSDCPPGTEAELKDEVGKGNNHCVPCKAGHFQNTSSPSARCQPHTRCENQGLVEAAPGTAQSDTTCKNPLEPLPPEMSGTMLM
Chain of Soluble human LTBR (shuLTBR) (P36941 31-227 limits assumed): as the sequence (P36941 31-227) above

B1: 71F10 Fab-hLIGHT fusion with the delta 4 linker (BIIB71F10-130) (other)
heavy: EVQLLESGGGLVQPGGSLRLSCAASGFTFSSYGMVWVRQAPGKGLEWVSSISSSGGLTWYADSVKGRFTISRDNSKNTLYLQMNSLRAEDTAVYYCASPPGIAVARDYWGQGTLVTVSSASTKGPSVFPLAPSSKSTSGGTAALGCLVKDYFPEPVTVSWNSGALTSGVHTFPAVLQSSGLYSLSSVVTVPSSSLGTQTYICNVNHKPSNTKVDKKVEPKSCDKLHWRLGEMVTRLPDGPAGSWQERRSHEVNPAAHLTGANSSLTGSGGPLLWETQLGLAFLRGLSYHDGALVVTKAGYYYIYSKVQLGGVGCPLGLASTITHGLYKRTPRYPEELELLVSQQSPCGRATSSSRVWWDSSFLGGVVHLEAGEEVVVRVLDERLVRLRDGTRSYFGAFMV
light: DIQMTQSPSSLSASVGDRVTITCRASQGISNYLAWYQQKPGKVPKLLIYAASTLQSGVPSRFSGSGSGTDFTLTISSLQPEDVATYYCQKYNSALLTFGGGTKVEIKRTVAAPSVFIFPPSDEQLKSGTASVVCLLNNFYPREAKVQWKVDNALQSGNSQESVTEQDSKDSTYSLSSTLTLSKADYEKHKVYACEVTHQGLSSPVTKSFNRGEC
modifications: Assembles as a trimer of heavy/light pairs; one pair is given.
notes: Fab heavy chain fused to human LIGHT extracellular portion; assembles as a trimer (66 kDa x3); also called pBIIB71F10-130; 71F10 Fab-Δ4huLIGHT
In experiment [1], B1 yielded a koff of 0.000168 s⁻¹. The same molecule had a koff in experiment [2] of 0.000112 s⁻¹. The koff in [3] amounted to 0.000122 s⁻¹. In addition, the half-maximal effective concentration (EC50) in experiment [4] turned out to be 0.00955 µg/mL. The molecule further came in with an EC50 in experiment [5] of 0.5 nM. Besides, the 50% effective concentration (EC50) in experiment [6] amounted to 0.5 nM. The EC50 in [7] worked out at 0.05 nM. Moreover, in experiment [8], the “CCL2 (MCP-1) transcript, fold difference test/control, HT29 cells, quantitative RT-PCR” value was 1050 fold; the “CCL5 (RANTES) transcript, fold difference test/control, HT29 cells, quantitative RT-PCR” value amounted to 1220 fold; the “CCL7 (MCP-3) transcript, fold difference test/control, HT29 cells, quantitative RT-PCR” value is -527 fold; the “CCL21 transcript, fold difference test/control, HT29 cells, quantitative RT-PCR” value was determined as 546 fold. In [8], the “CCR4 transcript, fold difference test/control, HT29 cells, quantitative RT-PCR” value was 1650 fold; the “CXCL2 transcript, fold difference test/control, HT29 cells, quantitative RT-PCR” value worked out at 1130 fold; the “CXCL3 transcript, fold difference test/control, HT29 cells, quantitative RT-PCR” value came to 1090 fold; the “CXCL5 (ENA-78/LIX) transcript, fold difference test/control, HT29 cells, quantitative RT-PCR” value came out at 1810 fold. Besides, in [8], the “CXCL9 transcript, fold difference test/control, HT29 cells, quantitative RT-PCR” value came to 675 fold; the “CXCL10 (IP-10) transcript, fold difference test/control, HT29 cells, quantitative RT-PCR” value is 5270 fold; the “CXCL11 (I-TAC/IP9) transcript, fold difference test/control, HT29 cells, quantitative RT-PCR” value was found to be 1730 fold; the “IFNA2 transcript, fold difference test/control, HT29 cells, quantitative RT-PCR” value was 193 fold. In addition, in [8], the “IL5 transcript, fold difference test/control, HT29 cells, quantitative RT-PCR” value was determined as 940 fold; the “IL8 transcript, fold difference test/control, HT29 cells, quantitative RT-PCR” value came out at 373 fold; the “IL10RA transcript, fold difference test/control, HT29 cells, quantitative RT-PCR” value came to 3440 fold; the “LTB transcript, fold difference test/control, HT29 cells, quantitative RT-PCR” value is 2910 fold. The “TNF transcript, fold difference test/control, HT29 cells, quantitative RT-PCR” value in [8] was found to be 7370 fold. Besides, the EC50 in experiment [9] stood at 0.01 nM. The molecule also returned an EC50 in experiment [10] of 0.01 nM. In addition, the EC50 in experiment [11] was found to be 0.2 nM. In experiment [12], the EC50 stood at 0.0114 µg/mL.

B2: 71F10 Fab-hLIGHT fusion with the (G4S)4 linker (BIIB71F10-132) (other)
heavy: EVQLLESGGGLVQPGGSLRLSCAASGFTFSSYGMVWVRQAPGKGLEWVSSISSSGGLTWYADSVKGRFTISRDNSKNTLYLQMNSLRAEDTAVYYCASPPGIAVARDYWGQGTLVTVSSASTKGPSVFPLAPSSKSTSGGTAALGCLVKDYFPEPVTVSWNSGALTSGVHTFPAVLQSSGLYSLSSVVTVPSSSLGTQTYICNVNHKPSNTKVDKKVEPKSCDKGGGGSGGGGSGGGGSGGGGSNPAAHLTGANSSLTGSGGPLLWETQLGLAFLRGLSYHDGALVVTKAGYYYIYSKVQLGGVGCPLGLASTITHGLYKRTPRYPEELELLVSQQSPCGRATSSSRVWWDSSFLGGVVHLEAGEEVVVRVLDERLVRLRDGTRSYFGAFMV
light: B1 light
notes: Fab heavy chain fused to human LIGHT extracellular portion; assembles as a trimer; also called 71F10 Fab-(G4S)4-LIGHT
For the molecule B2, in experiment [13], the “stoichiometry (shuLTBR per Fab-Light trimer)” value is 2 shuLTBR per trimer and 3 shuLTBR per trimer.

One may read the koff as a measure of how fast the partners let go of each other. One may read the EC50 as the concentration at which the effect is half-maximal.
